Source: US20240059759A1
Residue numbers refer to the chain shown, from its start. Several values for one entry are separate records, joined by “and”; a condition that tells them apart may be missing. Identical values can stand only once. Like-named read-outs stand apart in the source and are kept apart here.

Experiments:
[1] = molecular target: SARS-CoV-2 Spike RBD-His Tag, Sino Biological (SARS-CoV-2)
[2] = molecular target: SARS-CoV-2 Spike RBD-His Tag, Sino Biological (SARS-CoV-2); remark: listed apart in the source
CoV-2 (SARS-CoV-2) [3] = molecular target: CoV-2 (SARS-CoV-2)
CoV-2 (SARS-CoV-2) [4] = molecular target: CoV-2 (SARS-CoV-2); remark: listed apart in the source
CoV-2 (SARS-CoV-2) [5] = molecular target: CoV-2 (SARS-CoV-2); remark: listed apart in the source
[6] = molecular target: SARS-CoV-2 Spike RBD-His Tag, Sino Biological (SARS-CoV-2); remark: listed apart in the source
[7] = molecular target: SARS-CoV-2 Spike RBD-His Tag, Sino Biological (SARS-CoV-2); remark: listed apart in the source
[8] = molecular target: SARS-CoV-2 Spike RBD-His Tag, Sino Biological (SARS-CoV-2); remark: listed apart in the source
[9] = molecular target: SARS-CoV-2 Spike RBD-His Tag, Sino Biological (SARS-CoV-2); remark: listed apart in the source
[10] = molecular target: SARS-CoV-2 Spike RBD-His Tag, Sino Biological (SARS-CoV-2); remark: listed apart in the source
[11] = molecular target: SARS-CoV-2 Spike RBD-His Tag, Sino Biological (SARS-CoV-2); remark: listed apart in the source
[12] = molecular target: SARS-CoV-2 Spike RBD-His Tag, Sino Biological (SARS-CoV-2); remark: listed apart in the source
[13] = molecular target: SARS-CoV-2 Spike RBD-His Tag, Sino Biological (SARS-CoV-2); remark: listed apart in the source
[14] = molecular target: SARS-CoV-2 Spike RBD-His Tag, Sino Biological (SARS-CoV-2); remark: listed apart in the source
[15] = molecular target: SARS-CoV-2 Spike RBD-His Tag, Sino Biological (SARS-CoV-2); remark: listed apart in the source
[16] = molecular target: SARS-CoV-2 Spike RBD-His Tag, Sino Biological (SARS-CoV-2); remark: listed apart in the source
[17] = molecular target: SARS-CoV-2 Spike RBD-His Tag, Sino Biological (SARS-CoV-2); remark: listed apart in the source
[18] = molecular target: SARS-CoV-2 Spike RBD-His Tag, Sino Biological (SARS-CoV-2); remark: listed apart in the source
[19] = molecular target: SARS-CoV-2 Spike RBD-His Tag, Sino Biological (SARS-CoV-2); remark: listed apart in the source
[20] = molecular target: SARS-CoV-2 Spike RBD-His Tag, Sino Biological (SARS-CoV-2); remark: listed apart in the source
[21] = molecular target: SARS-CoV-2 Spike RBD-His Tag, Sino Biological (SARS-CoV-2); remark: listed apart in the source
CoV-2 (SARS-CoV-2) [22] = molecular target: CoV-2 (SARS-CoV-2); remark: listed apart in the source
CoV-2 (SARS-CoV-2) [23] = molecular target: CoV-2 (SARS-CoV-2); remark: listed apart in the source
CoV-2 (SARS-CoV-2) [24] = molecular target: CoV-2 (SARS-CoV-2); remark: listed apart in the source
CoV-2 (SARS-CoV-2) [25] = molecular target: CoV-2 (SARS-CoV-2); remark: listed apart in the source
CoV-2 (SARS-CoV-2) [26] = molecular target: CoV-2 (SARS-CoV-2); remark: listed apart in the source
[27] = molecular target: SARS-CoV-2 Spike RBD-His Tag, Sino Biological (SARS-CoV-2); remark: listed apart in the source
[28] = molecular target: SARS-CoV-2 Spike RBD-His Tag, Sino Biological (SARS-CoV-2); remark: listed apart in the source

B1: vhh_tstrep_sars2_pjl1_L_74 (VHH)
VHH: QVQLQESGGGLVQAGGSLRLSCAASGRTFSEYAMGWFRQAPGKEREFVATISWSGGATYQTDSVKGRFTISRDNAKNTVYLQMNSLKPDDTAVYYCAAAGLGTVVSEWDYDYDYWGQGTQVTVSS
Q: What does the source list for B1?
A: xmid (log10) [1]: -0.413; xmid (log10) [2]: -0.787

B2: vhh_tstrep_sars2_pjl1_L_79 (VHH)
VHH: B1 VHH with Q60T
Q: For B2, which xmid (log10) [1] is on record?
A: Its xmid (log10) is -1.01.

Q: What about the xmid (log10) [2] of the same binder?
A: Its xmid (log10) is -1.02.

B3: vhh_tstrep_sars2_pjl1_L_1 (VHH)
VHH: B1 VHH with A57S, Q60Y, A97G
Q: With B3 as the binder, how does the xmid (log10) (CoV-2 (SARS-CoV-2) [3]) read?
A: The xmid (log10) was 0.321.

Q: And the xmid (log10) (CoV-2 (SARS-CoV-2) [4])?
A: The xmid (log10) was 0.903.

Q: And the xmid (log10) (CoV-2 (SARS-CoV-2) [5])?
A: The xmid (log10) was 0.839.

B4: vhh_tstrep_sars2_pjl1_L_75 (VHH)
VHH: B1 VHH with Q60S
Q: For B4, which xmid (log10) [6] is on record?
A: Its xmid (log10) is -0.0338.

Q: And the xmid (log10) [7]?
A: Its xmid (log10) is 0.0467.

B5: vhh_tstrep_sars2_pjl1_L_77 (VHH)
VHH: B1 VHH with Q60H
Q: For B5, which xmid (log10) [6] is on record?
A: The xmid (log10) was -1.22.

Q: And the xmid (log10) [7]?
A: The xmid (log10) was -1.42.

Q: And the xmid (log10) [8]?
A: The xmid (log10) was -1.54.

Q: And the xmid (log10) [9]?
A: The xmid (log10) was -1.54.

Q: And the xmid (log10) [10]?
A: The xmid (log10) was -1.6.

Q: What about the xmid (log10) [11] of the same binder?
A: Its xmid (log10) is -1.92.

Q: What about the xmid (log10) [12] of the same binder?
A: Its xmid (log10) is -1.49.

Q: What about the xmid (log10) [13] of the same binder?
A: The xmid (log10) was -1.54.

Q: And the xmid (log10) [14]?
A: Its xmid (log10) is -1.66 and -1.72.

B6: vhh_tstrep_sars2_pjl1_L_80 (VHH)
VHH: B1 VHH with Q60Y, D62R
Q: How did the xmid (log10) [15] turn out when B6 was run?
A: The xmid (log10) was -0.743.

Q: What about the xmid (log10) [7] of the same binder?
A: Its xmid (log10) is -0.61.

B7: vhh_tstrep_sars2_pjl1_L_76 (VHH)
VHH: B1 VHH with Q60E
Q: B7 was tested. Which xmid (log10) [6] did it give?
A: Its xmid (log10) is -0.184.

Q: And the xmid (log10) [16]?
A: Its xmid (log10) is -0.368.

B8: vhh_tstrep_sars2_pjl1_L_99 (VHH)
VHH: B1 VHH with Q60Y, D109A, Y114A
Q: What does the source list for B8?
A: xmid (log10) [17]: -0.384; xmid (log10) [18]: -0.202

B9: vhh_tstrep_sars2_pjl1_L_112 (VHH)
VHH: B1 VHH with Q60H, S63T
Q: Which results are given for B9?
A: xmid (log10) [19]: -1.14; xmid (log10) [20]: -1.27

B10: vhh_tstrep_sars2_pjl1_L_114 (VHH)
VHH: B1 VHH with Q60H, A98P
Q: With B10 as the binder, how does the xmid (log10) [19] read?
A: The xmid (log10) was 0.263.

Q: And the xmid (log10) [20]?
A: The xmid (log10) was 0.526.

B11: vhh_tstrep_sars2_pjl1_L_113 (VHH)
VHH: B1 VHH with Q60H, Y110F
Q: How did the xmid (log10) [19] turn out when B11 was run?
A: The xmid (log10) was -0.0032.

Q: And the xmid (log10) [21]?
A: Its xmid (log10) is 0.334.

B12: vhh_tstrep_sars2_pjl1_L_115 (VHH)
VHH: B1 VHH with Q60H, G100D
Q: How did the xmid (log10) [8] turn out when B12 was run?
A: Its xmid (log10) is -0.277.

Q: What about the xmid (log10) [11] of the same binder?
A: The xmid (log10) was 0.0337.

B13: vhh_tstrep_sars2_pjl1_L_35 (VHH)
VHH: B1 VHH with A57S, Q60Y, A98G
Q: For B13, which xmid (log10) (CoV-2 (SARS-CoV-2) [22]) is on record?
A: The xmid (log10) was -0.501.

Q: What about the xmid (log10) (CoV-2 (SARS-CoV-2) [4]) of the same binder?
A: The xmid (log10) was 0.231.

Q: What about the xmid (log10) (CoV-2 (SARS-CoV-2) [23]) of the same binder?
A: Its xmid (log10) is 0.355.

B14: vhh_tstrep_sars2_pjl1_L_27 (VHH)
VHH: B1 VHH with A57S, Q60Y, G102A
Q: With B14 as the binder, how does the xmid (log10) (CoV-2 (SARS-CoV-2) [24]) read?
A: The xmid (log10) was 0.178.

Q: And the xmid (log10) (CoV-2 (SARS-CoV-2) [25])?
A: The xmid (log10) was 0.407.

Q: And the xmid (log10) (CoV-2 (SARS-CoV-2) [26])?
A: Its xmid (log10) is 0.577.

B15: vhh_tstrep_sars2_pjl1_L_144 (VHH)
VHH: B1 VHH with I51S, Q60H
Q: For B15, which xmid (log10) [10] is on record?
A: The xmid (log10) was 0.491.

Q: What about the xmid (log10) [27] of the same binder?
A: The xmid (log10) was -0.0515.

B16: vhh_tstrep_sars2_pjl1_L_145 (VHH)
VHH: B1 VHH with W53L, Q60H
Q: Which xmid (log10) [20] does the source give for B16 here?
A: Its xmid (log10) is 0.668.

Q: What about the xmid (log10) [28] of the same binder?
A: Its xmid (log10) is 0.562.

B17: vhh_tstrep_sars2_pjl1_L_150 (VHH)
VHH: B1 VHH with T58G, Q60H
Q: With B17 as the binder, how does the xmid (log10) [20] read?
A: Its xmid (log10) is 0.171.

Q: What about the xmid (log10) [27] of the same binder?
A: Its xmid (log10) is 0.879.

B18: vhh_tstrep_sars2_pjl1_L_139 (VHH)
VHH: B1 VHH with Q60H, Y112F
Q: For B18, which xmid (log10) [14] is on record?
A: Its xmid (log10) is 0.366.

B19: vhh_tstrep_sars2_pjl1_L_47 (VHH)
VHH: B1 VHH with A57S, Q60Y, Y112A
Q: With B19 as the binder, how does the xmid (log10) (CoV-2 (SARS-CoV-2) [24]) read?
A: The xmid (log10) was -0.708.

Q: What about the xmid (log10) (CoV-2 (SARS-CoV-2) [5]) of the same binder?
A: The xmid (log10) was 1.45.

Q: What about the xmid (log10) (CoV-2 (SARS-CoV-2) [23]) of the same binder?
A: The xmid (log10) was 0.716.

B20: vhh_tstrep_sars2_pjl1_L_4 (VHH)
VHH: B1 VHH with A57S, Q60Y, A99G
Q: B20 was tested. Which xmid (log10) (CoV-2 (SARS-CoV-2) [3]) did it give?
A: Its xmid (log10) is -0.0058.

Q: What about the xmid (log10) (CoV-2 (SARS-CoV-2) [25]) of the same binder?
A: The xmid (log10) was 0.673.

Q: And the xmid (log10) (CoV-2 (SARS-CoV-2) [5])?
A: The xmid (log10) was 0.752.
